Among the data in patent US20210324028A1 are Kd values, retold here.

The term Kd denotes a measure of binding affinity in units of concentration. Lower therefore signals tighter binding.

Read-outs that look alike come from different tables or passages of the source.

Common to all, as to test: SPR, steady state
Assay [1] has as its target human IL-2Rβ (human) (UniProt P14784).
Assay [2] shares this target. The source holds these as a separate data set.
A further assay addresses human IL-15Rα (human) (UniProt Q13261).

Sequence of human IL-2Rβ (human) (P14784 27-240 limits assumed): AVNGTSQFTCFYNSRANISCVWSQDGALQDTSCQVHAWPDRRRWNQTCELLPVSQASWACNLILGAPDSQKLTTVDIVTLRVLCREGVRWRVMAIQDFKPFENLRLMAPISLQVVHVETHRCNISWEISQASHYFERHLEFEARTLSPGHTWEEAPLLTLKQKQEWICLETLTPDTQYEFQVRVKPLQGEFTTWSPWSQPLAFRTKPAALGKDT
Sequence of human IL-15Rα (human) (Q13261 31-205 limits assumed): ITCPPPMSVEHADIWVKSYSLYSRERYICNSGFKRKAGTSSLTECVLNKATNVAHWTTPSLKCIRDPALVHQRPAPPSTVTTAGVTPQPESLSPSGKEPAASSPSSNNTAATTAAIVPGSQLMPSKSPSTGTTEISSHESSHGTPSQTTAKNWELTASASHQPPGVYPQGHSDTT

As to “IL-15Rasu-IL-15 (non-fusion, wild-type) (from UniProt Q13261 31-95)”, the values for the Kd in the assay with human IL-2Rβ (human) [1] and with human IL-2Rβ (human) [2] were 69.6 nM and 54.4 nM, respectively.
For the substance hIL-15 V49R/E64 N/S (ligand), the Kd with human IL-15Rα (human) was 130 nM; with human IL-2Rβ (human) [2], more than 500 nM.
